Results on two substances are retold here after article PMC11096372.

Assay [1] deals with Cas7b, backbone subunit of the Synechocystis sp. PCC 6714 type I-B Cascade (Synechocystis sp. PCC 6714). In words: cryo-EM structure; SEC-purified Cascade with crRNA and a 59-bp ATG-PAM dsDNA target; full R-loop (higher than 3.6 Å) and partial R-loop (3.8 Å) states.
The target in assay [2] is Cas11b, small subunit of the Synechocystis sp. PCC 6714 type I-B Cascade (Synechocystis sp. PCC 6714). The assay is described as above.

The substance “Cas7b, backbone subunit of the Synechocystis sp. PCC 6714 type I-B Cascade (natural protein)” gave a stoichiometry N in assay [1] of 7. In assay [2], “Cas11b, small subunit of the Synechocystis sp. PCC 6714 type I-B Cascade (natural protein)” showed a stoichiometry N of 3.

By stoichiometry N is commonly meant the number of molecules, sites or subunits per partner or assembly.
